This data set in a line: soluble on expression in E. coli; label from the status in PepcDB or PDB records.
In the case of “MSLENKIIFVAGACGRIGKALCEKILLSKGIPILADINKECLNKLQENLETNFKTKLLSLELDITKQESLQTALQKSQERYGKIDAFVNSSYPFGKDWGKTPYYELKYEQICESLNLHLAGFMLAAQEFVKFFKQQGYGNIINLSSIMGVYAPKFENYEGTSMQSSLEYSVIKAGINHMSSWLAKELFNQNIRVNTLASGGILDNQNELFLKAYRKCCASKGMLDADDICGTLVFLLSDESKFITGQTLVVDDGWGLEGHHHHHH”, the “soluble on expression in E. coli” value is “soluble”.
For “MGSDKIHHHHHHMKVSVVILNWNGCDMLRTFLPSVIRYSKSEEVEVCVADNGSTDASVEMLREEFPCVRIIVLDQNHGFADGYNLALQQVEAEYVVLLNSDVEVTEHWLEPMISYLDGHPEVAACQPKIRSQRQKEYFEYAGAAGGFIDKYGYPFCRGRIMGVVEKDEGQYDTILPVFWATGAALFIRHADYREAGGLDGRFFAHMEEIDLCWRLRSRGREIVCIPQSTVYHVGGATLKKENPRKTFLNFRNNLVMLYKNLSDEELNKVMRIRTCLDYVAAFTFLLKGQLDNARAVMRARKEYKQICPSFSSSRKENLRKTSLNPIPERIKSSILWQFYVGGCKRFSQLSDLKG”, the “soluble on expression in E. coli” value is listed as “not soluble”.
In the case of “MKQFLVALTILTSSLFSFASALDIIDESFLALKEFLDQPDSGAFLSLLERARGIFIVPKYLKLGWVLGGQYGQGVLLKRDPETNTWYGPLFVKMYGLSFGPQIGFQSVSLIAVIMENVDAFAEGNITLGGSLSVAAGPLGRRLSADYNLDASVYSYSIARGFYAGFSLEGAKIDVDLDLTREYYNVYRIEPEEILRREVSGRAEKIVNLLNEKLTEEAAALEHHHHHH”, the “soluble on expression in E. coli” value was “not soluble”.
The same measure for “DDSAVTLFIPGYAGNRFSFGGMLQRFTAGGIANKSLVVMIDRHNHPHVTGELDAYRPMVQLIFATPRVAVRQQAAGVLAVVQYLIAHEHVQTINLVAHSMGGVVLFQYLTTAAKLVNLPEVRKVVTIGAPFNDSEVGQNTYPIENHPLTATGPTKTTPVYNYFLRTLQRLPNTISYLNIAGNIGDAAQSDGAVALNSALSLRFLLRPTRDQYQEFVVHGKNARHSRLHENYEVDRQIVQFFISRSHKKGCW”: “not soluble”; for “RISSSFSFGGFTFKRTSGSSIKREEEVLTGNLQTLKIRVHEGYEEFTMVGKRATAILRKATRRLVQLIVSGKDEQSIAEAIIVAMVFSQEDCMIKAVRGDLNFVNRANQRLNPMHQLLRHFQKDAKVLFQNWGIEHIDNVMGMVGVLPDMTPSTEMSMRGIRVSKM”: “soluble”.
For “MRIYLIGFMCSGKSTVGSLLSRSLNIPFYDVDEEVQKREGLSIPQIFEKKGEAYFRKLEFEVLKDLSEKENVVISTGGGLGANEEALNFMKSRGTTVFIDIPFEVFLERCKDSKERPLLKRPLDEIKNLFEERRKIYSKADIKVKGEKPPEEVVKEILLSLEGNALGG”, the “soluble on expression in E. coli” value was “soluble”.
Consider “GPGSMAVQPGKVLAEQFSRQGIQYEESTDVLWCSLCTKADSLEIISRATVEDVLEHCRLRQHLLLMEKETVKEHYCPVEINGRSFLLDHNCVYPSTMFGKGRMLLDDTLGCVMTEDVCGGVKLLPRHKYTVVEIVIPPAGTPIPKDPSYYVERPVRSRKCHEKFDSWIQVHNSSVEGESALMKRRRIAFSQLNM”, for which the “soluble on expression in E. coli” value was “not soluble”.
The same measure for “MGSDKIHHHHHHVSSTIWTPTAVASEAAAIRFSLWRAVEGQHAVSTMVLVDSLEEQALLEQLLEGSKPPVPASANGLHWLLFTPFRYPPPPTGSRFRGPLDPGVFYGADEIETACAELGFWRWQFLMESPSLTALDPKPQTVFKVEVDTLTVDLRSPPFTESRALWIDPKSYAATQDLARSAREANIGAIRYESVRAPNRGGCGAILTPMAFAEPQPRDAQTWWLSVSRERVLWQRDDVLQRATFAFDTKAFCE”: “not soluble”.
On to “MSSRKVSRAHYDEDELASAANMSLVAEGHFRGMKELLSTMDLDTDANTIPELKERAHMLCARFLGGAWKTVPLEHLRISRIKGGMSNMLFLCRLSEVYPPIRNEPNKVLLRVYFNPETESHLVAESVIFTLLSERHLGPKLYGIFSGGRLEEYIPSRPLSCHEISLAHMSTKIAKRVAKVHQLEVPIWKEPDYLCEALQRWLKQLTGTVDAEHRFDLPEECGVSSVNCLDLARELEFLRAHISLSKSPVTFCHNDLQEGNILLPKASSGNIRMPSLSDETQALGNSLSAFNPADPRLVLIDFEYASYNYRAFDFANHFIEWTIDYDIDEAPFYKIQTENFPENDQMLEFFLNYLREQGNTRENELYKKSEDLVQETLPFVPVSHFFWGVWGLLQVELSPVGFGFADYGRDRLSLYFKHKQLLKNLASHQ”, for which the “soluble on expression in E. coli” value was “soluble”.
The same measure for “MGSDKIHHHHHHMTTFEVKDTAHVAFKIINLRCPHCHHAASFSGFDGCSDLRYNVQAKRHPSGATTNTFDIAGMRRCPNTTCRKLVFVMEDKYGEIESFPPEVIDFDASNLPSDILSSLEEAIRCHAANCYRASALMVRRTLEELCDNKSATGKDLKTRLAALGTVAVIPSELLSAADELRILGNDAAHIEAKDYDSIGKEESEIAIELAKELLKAVYQYTSLVARLTALKKPKQ”: “not soluble”.
With “AGPGAEEEQLDTAEIAFQVKEQLLKHNIGQRVFGHYVLGLSQGSVSEILARPKPWRKLTVKGKEPFIKMKQFLSDEQNVLALRTIQVR”, the “soluble on expression in E. coli” value was “soluble”.
The same measure for “IIGGNEVTPHSRPYMVLLSLDRKTICAGALIAKDWVLTAAHCNLNKRSQVILGAHSITREEPTKQIMLVKKEFPYPCYDPATREGDLKLLQLTEKAKINKYVTILHLPKKGDDVKPGTMCQVAGWGRTHNSASWSDTLREVNITIIDRKVCNDRNHYNFNPVIGMNMVCAGSLRGGRDSCNGDSGSPLLCEGVFRGVTSFGLENKCGDPRGPGVYILLSKKHLNWIIMTIKGAV”: “soluble”.
Then “MGSDKIHHHHHHMIWKLSERKDWNSLEQQFGWVRDMNQVPQHTVHHAEGSVAVHTRMVLEALLRQPAYPMLPEQEREILWAAALLHDVEKRSTSVDEGNGQVTSKNHAKRGETTVRTLLYRDIPAPFNIREHIASLVRHHGLPIWLMEREDPLKRACEASLRLDTSLLKQLTVADICGRISTDKEVLLEATEFFEMFCREQQCWGKAREFANGTARFHYFHTPRSYIDYVPHDDFKCGVTLLVGLPGMGKDYYIESRCADMPVVSLDAIRRKHKFSPTDKAANGWVAQTAKEQARIYLRKGQDFIWNATNVSRQRRTQLIDLFITYGARVKIVYIEKPYSVWRRQNSTREYEVPETVLDKMLGRLEVPQLTEAHEVVYVVEE”, with “not soluble”; and “MVPHDKDKDNPSELIRGKDVAAFGLWSLPSFDEPRDEPAVAAPQVPAVAEPAPAPPAVEEVELETVKPPTLEEIEAIRQDAYNEGFATGERDGFHAGQLKARQEAEEALKERLQSLERLMTQLLEPIAEQDALIEQGMVNLVNHVARQVIQRELHMDSSHVRQVLREALKLLPMGAANIRIHVNPQDFERVKALRERHEESWRILEDDSLLPGGCRIETEHSRIDATIETRLAQAVKQLFEQQREQATHPLASDIRIDLDAPGDVDAP”, with “not soluble”; and “MAHHHHHHMAFTDAVAGKTSLPPPVAIIVGHNIDASAMPLTYERNRLVIDMLQHYACPVFSHKKSGDAMNTVSSDVFEWVLEPLPVVGVEDMTAFHDRAYLNYLSIREALSEVDERASTVKRSRAEGIQPPVSRRSSAQNQPPLRVLPDLVPIPTDEEYGLVNENMPFVGMWRTIQATVSGTLLAARLLAQPGRFAAIHWFGGRHHAKQSTAGGFCFANDVVLGVLELKKLLSSDKKGILVVDVDAHHGDGTQSAFLHDNSVLTLSMHAHGVGIFPGSGGIEEIGAGLGRGFTMNVPLPEGATDILAVTLMYRSIHFAFKKLGEGLAAIVIVCGSDALSGDPLGALNLTVGGMQSIIRLLLKEAARRSLKVLLLGGGGYVDTSCARLAGVVTKDVLSCAAAMRLGKTEYFGDSANLGDNLGVAVPEGCEYFTRYGPSFLMHGLPPARVSKLYRLPYGSPLFMRMQRAATKEALRRRRNQEQDEEEEEEEEEEEEEEEEEEEEEEEEEVEEEEGEGEEEA”, with “not soluble”.
The same measure for “MGSDKIHHHHHHAENNDDCFRGVPLQVKLPAGILSETMQDINIYVFDGSDRLLDILPIRSLEPVILSYPGIPSLHCIAWGNTQDGTMYVSPLKTGDPLSAGFISLKPSAVTRAQKSIFISPTDLFYGELNVDNTSTSNRIEEKEMSVSRMVASMNITIRGLELLSQSNEGVYSIVVHETASRVDFEGRYGGDPASYAFSPRFEAGKDYIIPPFNLFPTTVGSGISIDIYRNGSLLRSISTDSGNQPILPVVGKTLNVLLNFRLDVDVELALTGWGEEYIWKEYN”: “not soluble”.

The record behind these values is the DeepSol protein solubility set.
